# Starred links: 1 amine or outer side, 2 acyl side, 3 side chain; linkers in the order of their positions; H or OH if unused. Positions of bridges follow the written chain, without caps; N, C: chain ends. Non-standard residues stand in square brackets, D forms with d. Primed or numbered codes have the meaning given here. *: point of attachment. PyrS2″ = (S)-3-amino-1-((pent-4-en-1-yloxy)carbonyl)pyrrolidine-3-carboxylic acid (stapling residue), C=CCCCOC(=O)N1CC[C@@](N[*:1])(C(=O)[*:2])C1; B5(16) = 2-amino-2-(pent-4-en-1-yl)hept-6-enoic acid = 2,2-bis(4-pentenyl)glycine (stitching residue), C=CCCCC(CCCC=C)(N[*:1])C(=O)[*:2]; B5(4) = 2,2-bis(4-pentenyl)glycine = 2-amino-2-(pent-4-en-1-yl)hept-6-enoic acid (stitching residue), C=CCCCC(CCCC=C)(N[*:1])C(=O)[*:2]; TfeGA = (S)-2-amino-3-((carboxymethyl)(2,2,2-trifluoroethyl)amino)propanoic acid, O=C([C@H](CN(CC(=O)[*:3])CC(F)(F)F)N[*:1])[*:2]; PyrS2 = (S)-3-amino-1-((pent-4-en-1-yloxy)carbonyl)pyrrolidine-3-carboxylic acid, C=CCCCOC(=O)N1CC[C@@](N[*:1])(C(=O)[*:2])C1; 4MePipBz = 4-((4-methylpiperazin-1-yl)methyl)benzoyl on Lys side chain, CN1CCN(Cc2ccc(C(=O)*)cc2)CC1; MeBipipAc = 1'-methyl-[1,4'-bipiperidine]-4-carbonyl on Lys side chain, CN1CCC(N2CCC(C(=O)*)CC2)CC1; B5(3) = 2,2-bis(4-pentenyl)glycine (stitching residue), C=CCCCC(CCCC=C)(N[*:1])C(=O)[*:2]; AspSH = (S)-2-amino-4-mercapto-4-oxobutanoic acid, O=C(C[C@H](N[*:1])C(=O)[*:2])S[*:3]; MeMorphBz = 4-(morpholinomethyl)benzoyl on Lys side chain, O=C(c1ccc(CN2CCOCC2)cc1)*; B5 = 2-amino-2-(pent-4-en-1-yl)hept-6-enoic acid, C=CCCCC(CCCC=C)(N[*:1])C(=O)[*:2]; Acetyl(4-Me-piperazin-1-yl) = CN1CCN(CC(=O)*)CC1; Phe(3-CONH2) = NC(=O)c1cccc(C[C@H](N)C(=O)O)c1; Phe(2-CF3) = N[C@@H](Cc1ccccc1C(F)(F)F)C(=O)O; Phe(2-CONH2) = NC(=O)c1ccccc1C[C@H](N)C(=O)O; Phe(2-Cl) = N[C@@H](Cc1ccccc1Cl)C(=O)O; Ala(cPent) = N[C@@H](CC1CCCC1)C(=O)O; Bta = N[C@@H](Cc1csc2ccccc12)C(=O)O; αAllylPro = C=CC[C@@]1(C(=O)O)CCCN1; tBuAla = CC(C)(C)C[C@H](N)C(=O)O; 3Thi = N[C@@H](Cc1ccsc1)C(=O)O
# T1: B-cat-Halo (UniProt P35222 1-781)
# T1 sequence (looked up): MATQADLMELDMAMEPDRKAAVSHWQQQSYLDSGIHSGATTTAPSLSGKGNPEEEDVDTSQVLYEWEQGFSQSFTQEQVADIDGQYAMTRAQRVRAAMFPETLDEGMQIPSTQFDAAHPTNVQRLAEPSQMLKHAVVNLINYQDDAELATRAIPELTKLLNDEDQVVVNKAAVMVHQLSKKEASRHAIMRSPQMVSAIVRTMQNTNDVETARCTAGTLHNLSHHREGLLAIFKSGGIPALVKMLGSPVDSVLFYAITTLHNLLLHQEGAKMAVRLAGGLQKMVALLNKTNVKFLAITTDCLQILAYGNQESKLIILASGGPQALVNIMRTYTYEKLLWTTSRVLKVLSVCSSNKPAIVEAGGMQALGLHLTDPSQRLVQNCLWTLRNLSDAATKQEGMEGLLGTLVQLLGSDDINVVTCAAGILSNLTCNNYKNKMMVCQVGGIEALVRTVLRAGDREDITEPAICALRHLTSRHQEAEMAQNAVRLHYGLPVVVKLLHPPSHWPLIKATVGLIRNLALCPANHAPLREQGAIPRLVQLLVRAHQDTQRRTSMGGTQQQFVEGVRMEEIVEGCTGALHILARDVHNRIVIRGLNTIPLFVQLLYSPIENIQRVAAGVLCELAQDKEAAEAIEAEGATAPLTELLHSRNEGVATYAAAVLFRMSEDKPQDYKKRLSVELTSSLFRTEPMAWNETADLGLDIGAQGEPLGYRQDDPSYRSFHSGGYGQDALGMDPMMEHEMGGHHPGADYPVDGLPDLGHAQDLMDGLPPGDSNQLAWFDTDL
# T2: B-cat-Halo (beta-catenin HaloTag NanoBRET construct expressed in HEK293 cells) (UniProt P35222 1-781)
# T2 sequence (looked up): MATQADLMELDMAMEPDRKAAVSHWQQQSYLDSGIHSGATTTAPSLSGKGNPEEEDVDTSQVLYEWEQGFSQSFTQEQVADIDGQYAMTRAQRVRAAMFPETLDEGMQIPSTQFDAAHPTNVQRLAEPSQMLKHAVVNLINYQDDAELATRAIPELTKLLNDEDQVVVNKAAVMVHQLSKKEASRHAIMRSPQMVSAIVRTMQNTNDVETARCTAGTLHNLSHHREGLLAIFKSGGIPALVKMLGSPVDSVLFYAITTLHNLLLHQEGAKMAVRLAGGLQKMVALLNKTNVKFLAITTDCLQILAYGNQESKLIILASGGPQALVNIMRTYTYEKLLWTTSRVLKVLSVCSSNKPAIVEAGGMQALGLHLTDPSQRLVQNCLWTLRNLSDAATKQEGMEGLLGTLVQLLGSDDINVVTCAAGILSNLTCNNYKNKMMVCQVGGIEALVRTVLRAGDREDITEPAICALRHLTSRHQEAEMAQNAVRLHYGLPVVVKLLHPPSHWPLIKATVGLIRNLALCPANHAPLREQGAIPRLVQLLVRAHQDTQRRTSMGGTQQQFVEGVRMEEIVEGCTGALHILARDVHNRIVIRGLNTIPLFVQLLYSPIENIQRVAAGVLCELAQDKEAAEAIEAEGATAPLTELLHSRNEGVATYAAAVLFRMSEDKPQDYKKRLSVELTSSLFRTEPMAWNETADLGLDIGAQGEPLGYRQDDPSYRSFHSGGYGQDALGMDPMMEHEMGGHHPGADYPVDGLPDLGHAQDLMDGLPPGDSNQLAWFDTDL
# Target: T1, B-cat-Halo
# Assay: cell-based or functional assay
row,Binder,NanoBRET Abs IC50
1,"Ac-[αAllylPro]D[tBuAla][B5(4)]D[TfeGA]AAFL[PyrS2″][3Thi][Bta]N-NH2 (staple 1-4, 4-11; also: -CH=CH- in each staple reduced to -CH2-CH2-) [I-1715]",38.4 µM
2,"Ac-[αAllylPro]D[tBuAla][B5(4)]D[TfeGA]AAFL[PyrS2″][3Thi][Bta][Phe(3-CONH2)]-NH2 (staple 1-4, 4-11) [I-1708]",11.9 µM
3,"Ac-[αAllylPro]D[tBuAla][B5(4)]D[TfeGA]AAFL[PyrS2″][Ala(cPent)][Bta]Q-NH2 (staple 1-4, 4-11; also: -CH=CH- in each staple reduced to -CH2-CH2-) [I-1713]",> 20 µM
4,"Ac-[αAllylPro]D[tBuAla][B5(4)]D[TfeGA]AAFL[PyrS2″][3Thi][Bta]T-NH2 (staple 1-4, 4-11; also: -CH=CH- in each staple reduced to -CH2-CH2-) [I-1716]",21.7 µM
5,"Ac-[αAllylPro]D[tBuAla][B5(4)]D[TfeGA]AAFL[PyrS2″][3Thi][Bta][Phe(2-CONH2)]-NH2 (staple 1-4, 4-11) [I-1707]",6.1 µM
6,"Ac-[αAllylPro]D[tBuAla][B5]D[TfeGA]AAFL[PyrS2][Ala(cPent)][Bta]Q-NH2 (staple 1-4, 4-11) [I-1703]",6.6 µM
7,"Ac-[αAllylPro][AspSH][tBuAla][B5]DDAAFN[PyrS2][Phe(2-Cl)][Bta]Q-NH2 (staple 1-4, 4-11; not fully specified) [I-1721]",> 20 µM
8,"Ac-[αAllylPro]D[tBuAla][B5(4)]D[TfeGA]AAFL[PyrS2″]F[Bta]Q-NH2 (staple 1-4, 4-11; also: -CH=CH- in each staple reduced to -CH2-CH2-) [I-1711]",33.3 µM
9,"Ac-[αAllylPro]D[tBuAla][B5(16)]D[TfeGA]AAFL[PyrS2″][3Thi][Bta]N-NH2 (staple 1-4, 4-11) [I-1705]",2.9 µM
10,"Ac-[αAllylPro]D[tBuAla][B5(16)]D[TfeGA]AAFL[PyrS2″][Phe(2-CF3)][Bta]Q-NH2 (staple 1-4, 4-11) [I-1704]",5.3 µM

# Target: T2, B-cat-Halo (beta-catenin HaloTag …)
# Assay: cell-based or functional assay
row,Binder,NanoBRET Abs IC50
1,"Ac-[αAllylPro]D[tBuAla][B5(3)]DDAAFN[PyrS2″][3Thi][Bta]QK(MeBipipAc)-NH2 (staple 1-4, 4-11) [I-907]",27.8 µM
2,"Ac-[αAllylPro]D[tBuAla][B5(3)]DDAAFN[PyrS2″][3Thi][Bta]QK(MeMorphBz)-NH2 (staple 1-4, 4-11) [I-909]",28.4 µM
3,"Ac-[αAllylPro]D[tBuAla][B5(3)]DDAAFN[PyrS2″][3Thi][Bta]QK(Acetyl(4-Me-piperazin-1-yl))-NH2 (staple 1-4, 4-11) [I-906]",26.5 µM
4,"Ac-[αAllylPro]D[tBuAla][B5(3)]DDAAFN[PyrS2″][3Thi][Bta]QK(4MePipBz)-NH2 (staple 1-4, 4-11) [I-908]",26 µM
